According to publication PMC3075949:

Assays:
[1] = molecular target: Rh gH/gL-YFPC (rhesus lymphocryptovirus (Rh-LCV)); assay: split reporter
[2] = molecular target: EBV gH/gL-YFPC (Epstein-Barr virus (EBV)) (UniProt P03231); assay: split reporter

Row | Substance | % YFP cells of cells stained for gB and gH/gL [1] | % YFP cells of cells stained for gB and gH/gL [2]
1 | EBV gB-YFPN (from UniProt P03188 22-857) (natural protein) | 68% | –
2 | EBV/Rh (456-628) gB-YFPN (from UniProt P03188 22-450; P03188 624-857) | 72% | 93%
3 | EBV/Rh (456-807) gB-YFPN (from UniProt P03188 22-450; P03188 801-857) | 79% | –
4 | EBV/Rh (628-807) gB-YFPN (from UniProt P03188 22-622; P03188 801-857) | 59% | –
